# Measured values: patent US9696316B2, “Conformationally dynamic peptides” (SYSTEM OF SYSTEMS ANALYTICS, INC., priority 2009, dated 2017)
# Entries after “also recorded” stand apart in the source; their conditions may differ.
# How the values were obtained:
# Format in all cases: binding
# [1] = system: fibrillar amyloid target protein; assay: Signal gain on conformational change in the presence of fibrillar amyloid
# Protocol: Peptide Probe 22 (SEQ ID NO:2, 2 μM) labeled at each terminus with pyrene is incubated in 0 to 80% TFE in tris buffer (10 mM Tris, pH 7.0) for 30 min. The reaction is measured by TECAN fluorimeter, and the excimer:monomer fluorescence ratio is recorded. […] When tested for the ability to undergo conformational change in the presence of a fibrillar amyloid target protein, Peptide 22 performs 2.6 times greater than the reference peptide (SEQ ID NO:1).
# [2] = target: biotinylated Aβ42 oligomers (Homo sapiens, UniProt P05067); assay: In vitro affinity chromatography-based interaction assay (streptavidin beads); conditions: 4 μM probe
# Protocol: In this assay, soluble peptide probes are combined with, for example, soluble target protein oligomers in an in vitro affinity chromatography-based interaction assay. For this example, target protein is labeled with an affinity molecule, such as biotin, and incubated with a labeled peptide probe. After incubation, the mixture is incubated with the capture moiety, such as streptavidin, on a support, for example a column or beads, such that the target protein is captured. After washing of unbound material, the support can be examined for detection of the labeled peptide probe, which would indicate the presence of bound target protein-peptide probe complexes on the support. Alternatively, the bound material may be eluted and then examined for detection of the labeled peptide probe. Again, detection of the labeled peptide probe would indicate the presence of target protein-peptide probe complexes in the eluant. FIGS. 5A and 15A illustrate an affinity chromatography assay using biotin-labeled target protein and streptavidin-coated beads. This type of assay is useful, for example, for assessing the efficacy of a given peptide probe. […] The beads are washed with PBS to remove unbound material and the captured material is analyzed by SDS-PAGE. […] […]
# [3] = target: T1, Aβ42 oligomer (Homo sapiens, UniProt P05067); assay: CD analysis of peptide probe with target protein; conditions: 10 mM sodium phosphate pH 7.0, 3 hours
# Excerpt: The conformation of the peptide probe bound to the target protein can be assessed by CD analysis. […] The peptide alone is highly alpha helical (36%). Upon mixing of Peptide 38 with the target protein, the peptide undergoes a conformation shift that results in increased β-sheet conformation, and decreased α helix conformation. That is, the secondary structure of Peptide 38 is altered such that the proportion of a helix is halved (18%), while the proportion of β-sheet structure is enhanced from 20% to 31%. […] Circular dichroism (CD) analysis is used to determine the secondary structure of Peptide 22, synthetic Aβ42 oligomer, and a mixture thereof. Samples are incubated in 10 mM sodium phosphate (pH 7.0) for 3 hours at room temperature before measuring CD. For each sample, the relative ellipticity is evaluated from 190-260 nm. […] Each data set represents the average of three separate spectral scans.
# [4] = system: carbonic anhydrase; assay: Specificity assay, pyrene fluorescence (control substrate); conditions: 100 nM peptide, water, 15 hours, 0-300 nN substrate
# Protocol: (§1) Peptide 22 (100 nM) is incubated in water for 15 hours at room temperature with equimolar concentrations ([…]) of several potential Aβ substrates: Aβ42 oligomer (type 1); Aβ42 oligomer (type 2); Aβ1-42 monomer; Aβ1-40 monomer; Aβ1-42 fiber; Aβ1-40 fiber; bovine serum albumin (control substrate); and carbonic anhydrase (control substrate).
# [5] = target: bovine serum albumin (Bos taurus, UniProt P02769); assay: as above; conditions: 100 nM peptide, water, 15 hours, 0-300 nN substrate
# Protocol: as §1
# [6] = target: T2, Aβ1-42 monomer (Homo sapiens, UniProt P05067); assay: Specificity assay, pyrene fluorescence; conditions: 100 nM peptide, water, 15 hours, 0-300 nN substrate
# T2 construct: Aβ1-42 monomer; Aβ1-40 monomer; Aβ1-42 fiber; Aβ1-40 fiber
# Protocol: as §1
# [7] = target: T3, Aβ1-40 fiber (Homo sapiens, UniProt P05067); assay: Specificity assay, pyrene fluorescence; conditions: 100 nM peptide, water, 15 hours, 0-300 nN substrate
# T3 construct: Aβ1-42 monomer; Aβ1-40 monomer; Aβ1-42 fiber; Aβ1-40 fiber
# Protocol: as §1
# [8] = target: T4, Aβ1-42 fiber (Homo sapiens, UniProt P05067); assay: Specificity assay, pyrene fluorescence; conditions: 100 nM peptide, water, 15 hours, 0-300 nN substrate
# T4 construct: Aβ1-42 monomer; Aβ1-40 monomer; Aβ1-42 fiber; Aβ1-40 fiber
# Protocol: as §1
# [9] = target: T5, Aβ1-40 monomer (Homo sapiens, UniProt P05067); assay: Specificity assay, pyrene fluorescence; conditions: 100 nM peptide, water, 15 hours, 0-300 nN substrate
# T5 construct: Aβ1-42 monomer; Aβ1-40 monomer; Aβ1-42 fiber; Aβ1-40 fiber
# Protocol: as §1
# [10] = target: T1, Aβ42 oligomer; assay: Aqueous Aβ oligomer assay, pyrene fluorescence
# Excerpt: The conformation of peptide probe bound to the target protein can also be detected by measuring pyrene fluorescence, on the peptide alone and in combination with the target protein. […] The excimer fluorescence associated with the β-sheet conformation has a different wavelength than the monomer fluorescence associated with the alpha-helix conformation, and the excimer:monomer fluorescence ratio is 9:1. […] The addition of Aβ42 oligomer target protein results in a dose-dependent shift of the excimer:monomer fluorescence ratio to 20:1 at the highest Aβ42 oligomer concentration (0.3 μM). This change in excimer:monomer fluorescence ratio reflects a corresponding conformational change in the peptide, that results in increased β-sheet conformation, and decreased α helix conformation.
# An Aβ oligomer assay may be conducted in an aqueous solvent, such as water. […] Upon introduction of Aβ oligomer, the fluorescence profile shifts to primarily self-fluorescence (monomeric) (see FIG. 11), which is associated with reduced β-sheet structure, or increased alpha helix structure.
# As discussed above, Peptide 22 (SEQ ID NO: 2) undergoes a conformational change upon interaction with Aβ oligomer. FIG. 11 illustrates the fluorescence spectra for Peptide 22 labeled at each terminus with pyrene and incubated in aqueous conditions for several hours at room temperature in 10 mM Hepes (pH 7.0). […] (solid line=Time 0; dashed line=3 hours; dotted line=18 hours).
# as §1
# With reference to FIG. 13A, Peptide 22 (70 nM) is incubated with […] synthetic Aβ42 oligomer at 25 C, and fluorescence emission spectra is recorded after 3 hours incubation. […] (solid line—no Aβ42 oligomer; dashed/dot line—30 nN Aβ42 oligomer; large dashed line—100 nN Aβ42 oligomer; small dashed line—300 nN Aβ42 oligomer)
# T1 sequence (P05067 672-713 limits assumed): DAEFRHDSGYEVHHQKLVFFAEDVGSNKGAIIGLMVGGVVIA
# T2 sequence (P05067 672-713 limits assumed): as above
# T3 sequence (P05067 672-711 limits assumed): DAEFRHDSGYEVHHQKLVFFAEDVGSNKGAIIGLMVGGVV
# Chain of biotinylated Aβ42 oligomers (P05067 672-713 limits assumed): as the sequence (P05067 672-713 limits assumed) above
# T4 sequence (P05067 672-713 limits assumed): as above
# T5 sequence (P05067 672-711 limits assumed): as the sequence (P05067 672-711 limits assumed) above
# Chain of bovine serum albumin (P02769 25-607): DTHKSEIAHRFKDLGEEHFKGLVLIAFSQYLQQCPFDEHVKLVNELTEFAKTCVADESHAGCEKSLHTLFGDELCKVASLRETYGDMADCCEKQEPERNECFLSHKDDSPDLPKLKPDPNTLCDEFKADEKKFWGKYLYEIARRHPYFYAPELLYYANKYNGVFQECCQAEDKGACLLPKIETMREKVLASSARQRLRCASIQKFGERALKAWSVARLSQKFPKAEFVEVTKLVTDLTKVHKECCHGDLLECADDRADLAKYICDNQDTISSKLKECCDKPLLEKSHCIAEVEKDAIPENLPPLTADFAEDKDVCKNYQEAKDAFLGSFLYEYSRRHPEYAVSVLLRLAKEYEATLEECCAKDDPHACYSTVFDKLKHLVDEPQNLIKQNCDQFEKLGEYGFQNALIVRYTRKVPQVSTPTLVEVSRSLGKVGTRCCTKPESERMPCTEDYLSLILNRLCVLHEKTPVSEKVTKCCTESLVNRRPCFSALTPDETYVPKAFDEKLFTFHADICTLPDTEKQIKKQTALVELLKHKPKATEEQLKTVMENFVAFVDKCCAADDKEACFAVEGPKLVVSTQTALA
substance,measurement,setting,value
"KLVFFAEDVGSNKHAIIELMK (KLVFFAEDVGSNKHAIIELMK) [Peptide 22, Salt bridge at G29H and G33E]",maximal signal gain in the presence of fibrillar amyloid target protein relative to the reference peptide (SEQ ID NO:1),[1],about 2.6 times
same,capture of labeled peptide probe with biotinylated Aβ42 oligomer on streptavidin beads (SDS-PAGE),[2],directly binds to biotinylated Aβ42 oligomer
same,β sheet secondary structure (CD),"[3]; 4 μM peptide alone, room temperature",36%
same,β sheet secondary structure (CD),[3]; 4 μM peptide incubated with 33 nM synthetic Aβ42 oligomer,43%
same,fluorescence response to Anhydrase control,[4],no change in fluorescence
same,fluorescence response to BSA control,[5],no change in fluorescence
same,fluorescence response to Aβ42 monomer,[6],no change in fluorescence; also recorded: slight fluorescence response
same,fluorescence response to Aβ40 fibers,[7],no change in fluorescence; also recorded: slight fluorescence response
same,fluorescence response to Aβ42 fibers,[8],some dose-dependent increase in monomer fluorescence
same,fluorescence response to Aβ40 monomer,[9],no change in fluorescence
same,pyrene monomer (self) fluorescence (370-420 nm) versus Aβ42 oligomer concentration,"[10]; 70 nM peptide, 0, 30, 100, 300 nM synthetic Aβ42 oligomer, 25 C, 3 hours (FIG. 13A)",increases with Aβ42 oligomer concentration in a dose-dependent manner
same,fluorescence over time in the absence of oligomer,"[10]; 10 mM Hepes pH 7.0, room temperature, 0, 3, 18 hours (FIG. 11)",stable over time
same,reactivity with Aβ42 oligomers (transition from pyrene excimer fluorescence to pyrene self-fluorescence),[10]; aqueous assay,react with Aβ42 oligomers
same,preferential binding by state of self-aggregation of Aβ protein,"[10]; versus monomers, fibers and control proteins",preferentially binds to Aβ protein in the form of soluble Aβ oligomers
